T1: Human OSCAR (osteoclast-associated receptor), full length, on cells (human)
T1 chain: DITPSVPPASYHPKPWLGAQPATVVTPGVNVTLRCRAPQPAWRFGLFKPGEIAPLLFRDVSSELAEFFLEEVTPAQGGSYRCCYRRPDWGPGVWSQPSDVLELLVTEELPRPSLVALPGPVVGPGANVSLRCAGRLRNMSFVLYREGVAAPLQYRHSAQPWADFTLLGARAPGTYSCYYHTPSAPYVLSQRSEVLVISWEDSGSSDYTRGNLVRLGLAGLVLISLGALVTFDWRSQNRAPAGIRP

T2: Human OSCAR-S1a (naturally occurring soluble isoform) (human, UniProt Q8IYS5 19-282)
T2 construct: Recombinant soluble isoform used as SPR analyte; also called OSCAR 1Sa
T2 sequence: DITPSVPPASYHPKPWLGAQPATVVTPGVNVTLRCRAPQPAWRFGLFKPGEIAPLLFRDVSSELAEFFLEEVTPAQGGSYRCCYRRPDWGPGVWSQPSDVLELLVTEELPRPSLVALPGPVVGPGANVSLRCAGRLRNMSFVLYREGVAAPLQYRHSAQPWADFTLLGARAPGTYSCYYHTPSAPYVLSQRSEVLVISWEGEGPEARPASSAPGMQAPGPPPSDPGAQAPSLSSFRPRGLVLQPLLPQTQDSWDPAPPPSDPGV

B1: 4F3B (antibody, V domains shown)
VH: QVQLQQSGAELAKPGASVKMSCKASGFTFTSYWMHWVKQRPGQGLEWIGYINPSTDYTEYNQKFKDKATLTADKSSSTAYMQLSSLTSEDSAVYYCARRSPFAMDYWGQGTSVTVSS
VL: DIVMTQSPSSLTVTAGEKVTMSCKSSQSLLNSGNQKNYLTWYQQKPGQPPKVLIYWASTRESGVPDRFTGSGSGTDFTLTISSVQAEDLAVYYCQNDYSYPLTFGTGTKLELKR
notes: Mouse anti-human OSCAR mAb (its isotype control is mIgG1); The heavy chain entry covers only VH-CH1 and the start of the hinge; It was fluorescein-labelled in the peptide array and Alexa Fluor 647-labelled in the flow binning; also called mAb 4F3B
B2: 3F7A9 (antibody, V domains shown)
VH: EIQLQQSGPELVKPGASVKVSCKASGYVFTSYNMYWVKQSHGKSLEWIGYIDPYNGGTRYNQKFKGKATLTVDKSSSTAYMHLNSLTSEDSAVYYCARLDYYGNFYWGQGTTLTVSS
VL: DIKMTQSPSSMYASLGERVTITCKASQDINSFLSWLQQKPGKSPKTLIYRANRLVDGVPSRFSGSGSGQDYSLTISSLEYEDMGIYYCLQYDDFPYTFGGGTKLEIKR
notes: Mouse anti-human OSCAR mAb (its isotype control is mIgG1); The heavy chain entry covers only VH-CH1 and the start of the hinge; also called 3F7A9-1
B3: Human OSCAR-ECD (recombinant extracellular domain of human OSCAR) (receptor)
chain: DITPSVPPASYHPKPWLGAQPATVVTPGVNVTLRCRAPQPAWRFGLFKPGEIAPLLFRDVSSELAEFFLEEVTPAQGGSYRCCYRRPDWGPGVWSQPSDVLELLVTEELPRPSLVALPGPVVGPGANVSLRCAGRLRNMSFVLYREGVAAPLQYRHSAQPWADFTLLGARAPGTYSCYYHTPSAPYVLSQRSEVLVISWEDSGSSDYTR
notes: also called OSACAR-ECD
B4: 13F5A5 (antibody, V domains shown)
VH: EVQLVQSGAEVKKPGESLKISCKGSGYSFTSYWIVWVRQMPGKGLEWMGSIYPGDSDARYSPSFQGQVTISADKSISTAYLQWSSLKASDTAMYYCARQKITMVRGVIITPLDGMDVWGQGTTVTVSS
VL: not shown
notes: Fully human anti-OSCAR mAb from HuMab mice; also called 13F5A5 (Hu)

What was measured:
[1] = target: T1, Human OSCAR (osteoclast-associated …); experiment: cell-based or functional assay
[2] = target: T1, Human OSCAR (osteoclast-associated …); experiment: flow cytometry on primary human monocytes, donor #1
Method: (§1) Cell number and viability were determined using a Cedex cell counter. The cells were diluted in washing buffer (1×PBS (—Ca²⁺/—Mg²⁺)+5% FBS+0.1% Na-azide) to […]. In the case of monocytes, the cells were further blocked by adding 10 μl of a hFcR blocker (Miltenyi, #130-059-901) and incubated for 10 minutes at 4° C. 50 μl of cells (50.000 cells/well) were seeded into 96 well round-bottomed microtiter plates. Hybridoma supernatants or purified antibodies (in serial dilutions) were added to the cells at 50 μl/well. The isotype-matched purified irrelevant human mAb or mouse mAb served as negative controls (mouse IgG1, BD, #553452; mouse IgG2a, BD, #557353; mouse IgG2b, BD, #557352). […] Cells were washed in PBS, re-suspended in fixation buffer (1×PBS (—Ca²⁺/—Mg²⁺), pH7.2+1% formalin (B&B, #LAB96751.0500) and analysed by FACS flow cytometer. EC₅₀ values were calculated using a GraphPad Prism 5 software.

[3] = target: T1, Human OSCAR (osteoclast-associated …); experiment: flow cytometry on primary human monocytes, donor #2
Method: as §1

[4] = target: B3; experiment: SPR competition, 50 nM OSCAR-ECD premixed with mAb, over immobilised collagen I
Method: (§2) The experiment was performed using a Biacore T 100 instrument (GE Healthcare). Human collagen 1 (Sigma, # C5483) and human collagen 2 (Millipore #CC052) were diluted with 10 mM NaOAc, pH 4.5 and immobilized on a Biacore CM3 sensor chip (GE Healthcare) using amine coupling chemistry (GE Healthcare). Immobilization was performed according to the standard procedure, but at 5° C. in order to prevent aggregation collagens, with immobilized levels of ca 250 RU on flow cells (FC) 2 and 4. A blank immobilization was performed on FC 1 & 3, which were used as reference cells. HBS-EP buffer (10 mM HEPES, 150 mM NaCl, 3 mM EDTA, 0.05% Polysorbat P20, pH7.4) was used as running buffer for the immobilization. Buffer containing HBS-EP/+0.1% BSA was used for the competition assay. The competition experiment was performed at 5° C. at a flow rate of 50 μl/min. […] OSCAR was mixed with various concentrations of anti-OSCAR antibodies ranging from 0-10 μg/ml prior to injection. Binding curves were measured for 360 s followed by 240 s of dissociation. The chip surface was regenerated for 2×20 s with 10 mM glycine, pH 2.0 between assays.
(§3) Human collagen I and II were immobilized to the surface of a Biacore sensor chip by amine coupling. […] It was hypothesized that an antibody inhibiting binding of OSCAR to collagen would lead to a concentration-dependent loss of signal, whereas a non-inhibiting antibody would enhance the signal due to the increased mass of the OSCAR-antibody complex.

[5] = target: B3; experiment: SPR (Biacore T100), mAb coupled or captured on chip, OSCAR-ECD injected, 1:1 fit
Method: The kinetic parameters (kₐ, kd and KD) for the interaction were calculated using a 1:1 interaction Langmuir fitting model.

[6] = target: B3; experiment: SPR competition, 50 nM OSCAR-ECD premixed with mAb, over immobilised collagen II; set-up: unit not given here
Method: as §2, §3

[7] = target: B3; experiment: SPR competition, 50 nM OSCAR-ECD premixed with mAb, over ColI immobilised at ca 150 RU
Method: (§4) The experiment was performed using a Biacore T 100 instrument (GE Healthcare). Human ColI (Sigma, # C5483) was diluted with 10 mM NaOAc, pH 4.5 to 10 μg/ml and immobilized on a Biacore CM3 sensor chip (GE Healthcare) using amine coupling chemistry (GE Healthcare). Immobilization was performed according to the standard procedure, but at 4° C. in order to prevent aggregation of ColI, with immobilized levels of ca 150 RU on flow cell (FC) 2 and ca 300 RU on FC 4. A blank immobilization was performed on FC 1 & 3, which were used as reference cells. HBS-EP buffer (10 mM HEPES, 150 mM NaCl, 3 mM EDTA, 0.005% Polysorbat P20, pH7.4) was used as running buffer for the immobilization. Buffer containing HBS-EP/+0.1% BSA was used for the competition assay.
(§5) The competition experiment was performed at 4° C. at a flow rate of 50 μl/min. […] OSCAR was mixed with various concentrations of anti-OSCAR antibodies ranging from 0-5 μg/ml prior to injection. Binding curves were measured for 240 s followed by 200 s of dissociation. The chip surface was regenerated for 2×20 s with 10 mM glycine, pH 2.0 between assays. All assays were performed in duplicates.
(§6) Human ColI was immobilized to the surface of a Biacore sensor chip by amine coupling.

[8] = target: B3; experiment: SPR competition, 50 nM OSCAR-ECD premixed with mAb, over ColI immobilised at ca 300 RU
Method: as §4, §5, §6

[9] = target: T2, Human OSCAR-S1a (naturally occurring …); experiment: SPR competition, 50 nM OSCAR-S1a premixed with mAb, over ColI immobilised at ca 150 RU
Method: as §4, §5, §6

[10] = target: T2, Human OSCAR-S1a (naturally occurring …); experiment: SPR competition, 50 nM OSCAR-S1a premixed with mAb, over ColI immobilised at ca 300 RU
Method: as §4, §5, §6

[11] = target: T3, Human collagen I (Sigma, #C5483) (human, UniProt P02452 162-1218; P08123 80-1119); experiment: SPR
T3 construct: Bought collagen preparation, immobilised by amine coupling or coated on plates; also called ColI; colI
T3 sequence (P02452 162-1218, chain 1 of 2): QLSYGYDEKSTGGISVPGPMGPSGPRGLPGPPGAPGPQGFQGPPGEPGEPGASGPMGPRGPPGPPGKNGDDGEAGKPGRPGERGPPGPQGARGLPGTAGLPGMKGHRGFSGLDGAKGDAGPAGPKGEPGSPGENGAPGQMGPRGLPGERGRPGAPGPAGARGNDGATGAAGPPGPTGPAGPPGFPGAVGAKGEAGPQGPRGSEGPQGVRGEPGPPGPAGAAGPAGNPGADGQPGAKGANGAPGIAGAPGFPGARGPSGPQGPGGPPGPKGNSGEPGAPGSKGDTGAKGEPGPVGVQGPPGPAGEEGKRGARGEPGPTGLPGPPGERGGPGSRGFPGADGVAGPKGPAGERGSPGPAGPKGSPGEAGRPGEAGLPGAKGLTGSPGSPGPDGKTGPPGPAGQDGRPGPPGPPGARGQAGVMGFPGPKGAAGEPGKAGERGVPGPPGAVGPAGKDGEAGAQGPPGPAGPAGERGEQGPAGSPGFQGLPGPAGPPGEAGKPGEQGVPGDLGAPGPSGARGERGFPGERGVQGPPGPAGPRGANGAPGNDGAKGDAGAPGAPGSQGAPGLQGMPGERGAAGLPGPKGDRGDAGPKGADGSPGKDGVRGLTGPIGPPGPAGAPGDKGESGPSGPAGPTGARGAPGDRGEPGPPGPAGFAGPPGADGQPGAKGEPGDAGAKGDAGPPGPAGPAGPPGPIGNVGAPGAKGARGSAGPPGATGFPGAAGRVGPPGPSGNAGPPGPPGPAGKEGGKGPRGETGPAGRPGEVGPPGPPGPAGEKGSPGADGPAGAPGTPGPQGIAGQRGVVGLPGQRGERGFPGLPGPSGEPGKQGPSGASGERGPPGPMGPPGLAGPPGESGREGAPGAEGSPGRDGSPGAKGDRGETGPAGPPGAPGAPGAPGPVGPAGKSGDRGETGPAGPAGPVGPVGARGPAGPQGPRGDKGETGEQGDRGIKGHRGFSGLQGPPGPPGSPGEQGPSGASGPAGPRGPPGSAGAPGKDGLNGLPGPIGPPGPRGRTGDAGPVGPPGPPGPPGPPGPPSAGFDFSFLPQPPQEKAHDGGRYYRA
T3 sequence (P08123 80-1119, chain 2 of 2): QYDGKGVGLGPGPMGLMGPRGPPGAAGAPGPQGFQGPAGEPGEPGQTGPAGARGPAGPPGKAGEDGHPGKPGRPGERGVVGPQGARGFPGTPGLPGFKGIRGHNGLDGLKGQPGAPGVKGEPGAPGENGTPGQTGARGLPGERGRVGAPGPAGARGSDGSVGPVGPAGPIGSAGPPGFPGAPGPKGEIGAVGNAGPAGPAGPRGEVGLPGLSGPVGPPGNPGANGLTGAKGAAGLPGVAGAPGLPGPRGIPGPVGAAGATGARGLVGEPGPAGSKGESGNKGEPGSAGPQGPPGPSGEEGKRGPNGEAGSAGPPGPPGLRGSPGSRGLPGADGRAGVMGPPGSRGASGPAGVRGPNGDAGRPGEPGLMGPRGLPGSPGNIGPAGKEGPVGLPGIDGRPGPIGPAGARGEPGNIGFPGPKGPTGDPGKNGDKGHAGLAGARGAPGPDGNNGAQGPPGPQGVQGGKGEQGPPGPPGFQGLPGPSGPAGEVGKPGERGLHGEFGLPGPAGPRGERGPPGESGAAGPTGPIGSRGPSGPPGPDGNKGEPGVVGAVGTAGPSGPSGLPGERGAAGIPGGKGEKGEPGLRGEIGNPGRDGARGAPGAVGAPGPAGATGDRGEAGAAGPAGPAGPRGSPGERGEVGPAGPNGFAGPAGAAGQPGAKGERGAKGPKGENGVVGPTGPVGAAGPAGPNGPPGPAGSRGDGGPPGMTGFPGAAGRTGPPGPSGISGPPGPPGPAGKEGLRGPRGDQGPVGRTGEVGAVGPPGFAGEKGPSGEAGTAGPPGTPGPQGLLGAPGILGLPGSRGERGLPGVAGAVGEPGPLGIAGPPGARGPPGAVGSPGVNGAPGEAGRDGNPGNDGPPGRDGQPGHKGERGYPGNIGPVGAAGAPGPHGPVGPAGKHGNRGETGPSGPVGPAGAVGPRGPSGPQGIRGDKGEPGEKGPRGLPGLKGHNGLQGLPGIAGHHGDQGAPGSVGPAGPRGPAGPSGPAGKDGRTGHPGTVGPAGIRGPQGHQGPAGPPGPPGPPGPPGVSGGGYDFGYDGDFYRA

Row | Binder | IC50 (IL-8), ColI-induced IL-8 release from moDC, Donor 1 [1] [nM] | IC50 (IL-8), ColI-induced IL-8 release from moDC, Donor 3 [1] [nM] | IC50 (IL-8), ColI-induced IL-8 release from moDC, Donor 4 [1] [nM] | IC50 (IL-8), ColI-induced IL-8 release from moDC, Donor 5 [1] [nM] | IC50 (IL-8), ColI-induced IL-8 release from moDC, Donor 6 [1] [nM] | EC50 [2] [nM] | EC50 [3] [nM] | binding of OSCAR-ECD to collagen I with 10 µg/mL mAb [4] | Kd [5] [nM] | binding of OSCAR-ECD to collagen II with 10 µg/mL mAb [6] | Binding [RU] of OSCAR to ColI with 5 µg mAb [7] [RU] | Binding [RU] of OSCAR to ColI with 5 µg mAb [8] [RU] | Binding [RU] of OSCAR to ColI with 5 µg mAb [9] [RU] | Binding [RU] of OSCAR to ColI with 5 µg mAb [10] [RU] | IC50 (IL-8), ColI-induced IL-8 release from moDC, Donor 2 [1] [nM] | Kd [11] [nM]
1 | B1 | 0.19 | 0.4 | 0.12 | 0.43 | 0.24 | 0.66 | 0.32 | 0.7 | 1.7 | 6.7 | 0.9 | 3.6 | -0.3 | 1.4 |  | 
2 | B2 | 0.16 | 0.41 | 0.06 | 0.05 | 0.1 | 1.79 | 0.14 | 132 | 9.1 | 246 | 82.5 | 130 | 58.9 | 92.6 | 0.06 | 
3 | B3 |  |  |  |  |  |  |  |  |  |  |  |  |  |  |  | 255
4 | B4 | 2 |  | < 0.01 | 0.23 | 0.06 | 4.02 | 2.18 | -1.4 | 0.7 | 1.3 | 1.4 | 5.1 | -0.2 | 2 |  | 

Reference: patent US20140056918A1 (Novo Nordisk, published 2014)
